According to article PMC5880107, “The Sequence-specific Peptide-binding Activity of the Protein Sulfide Isomerase AGR2 Directs Its Stable Binding to the Oncogenic Receptor EpCAM*^([image sbox.jpg])” (Molecular & Cellular Proteomics : MCP, 2018):

B1: His-AGR2 WT (mature AGR2, amino acids 21-175, N-terminal 6xHis tag; plasmid pmAGR2) [human] / His-EpEX-CO, extracellular domain of EpCAM (amino acids 24-265), N-terminal 6xHis tag [human] (parent)
chain 1: RDTTVKPGAKKDTKDSRPKLPQTLSRGWGDQLIWTQTYEEALYKSKTSSKPLMIIHHLDECPHSQALKKVFAENKEIQKLAEQFVLLNLVYETTDKHLSPDGQYVPRIMFVDPSLTVRADITGRYSNRLYAYEPADTALLLDNMKKALKLLKTEL
chain 2: QEECVCENYKLAVNCFVNNNRQCQCTSVGAQNTVICSKLAAKCLVMKAEMNGSKLGRRAKPEGALQNNDGLYDPDCDESGLFKAKQCNGTSMCWCVNTAGVRRTDKDTEITCSERVRTYWIIIELKHKAREKPYDSKSLRTALQKEITTRYQLDPKFITSILYENNVITIDLVQNSSQKTQNDVDIADVAYYFEKDVKGESLFHSKKMDLTVNGEQLDLDPGQTLIYYVDEKAPEFSMQGLK

Variants of: B1
Experiment: ELISA (His-EpCAM solid phase; His-AGR2 mobile phase)
Details: with His-EpEX-CO, point at 0.5 μg AGR2 (highest dose of the titration), +DTT Blocking (DTT only in the blocking step, before AGR2 binding), read off a plot

**Q.** How did the response turn out when chain 1 RDTTVKPGAKKDTKDSRPKLPQTLSRGWGDQLIWTQTYEEALYKSKTSSKPLMIIHHLDECPHSQALKKVFAENKEIQKLAEQFVLLNLVYETTDKHLSPDGQYVPRIMFVDPALTVRADITGRYSNRLYAYEPADTALLLDNMKKALKLLKTEL [chain 1 S114A] was run?
**A.** Its response is 110 RLU.

Same assay, conditions: with His-EpEX-CO, point at 0.5 μg AGR2 (highest dose of the titration), no DTT in the blocking step, read off a plot

**Q.** How did the response turn out when chain 1 RDTTVKPGAKKDTKDSRPKLPQTLSRGWGDQLIWTQTYEEALYKSKTSSKPLMIIHHLDECPHSQALKKVFAENKEIQKLAEQFVLLNLVYETTDKHLSPDGQYVPRIMFVDPALTVRADITGRYSNRLYAYEPADTALLLDNMKKALKLLKTEL [chain 1 S114A] was run?
**A.** The response was 160 RLU.
